From the supplement of paper PMC9112550, “Optimization of the antimicrobial peptide Bac7 by deep mutational scanning” (BMC Biology, 2022)

The sequences below were run on Escherichia coli TOP10 (assay: shrunken log2 fold change of peptide-encoding DNA abundance (4.5 h post-induction vs induction); higher = less antimicrobial activity (less host growth inhibition)). Conditions: time post-induction: 4.5 h; library: site-saturation at positions 5, 18, 19, 20.
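Also: peptides expressed intracellularly from a pBAD plasmid library in pooled LB shake-flask culture, induced with 0.3% L-arabinose, DNA abundance read by NGS, three biological replicates, DESeq2 with apeglm shrinkage.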

In order of rising “shrunken log2 fold change” value:
1. RRIRCRPPRLPRPRPRPNLFPRP  -0.932
2. RRIRQRPPRLPRPRPRPHTMPRP  -0.9
3. RRIRNRPPRLPRPRPRPFIWPRP  -0.741
4. RRIRYRPPRLPRPRPRPVTMPRP  -0.688
5. RRIRQRPPRLPRPRPRPDMNPRP  -0.654
6. RRIRLRPPRLPRPRPRPINKPRP  -0.617
7. RRIRVRPPRLPRPRPRPYLSPRP  -0.491
8. RRIRERPPRLPRPRPRPSKVPRP  -0.365
9. RRIRCRPPRLPRPRPRPQYPPRP  -0.329
10. RRIRCRPPRLPRPRPRPCFPPRP  -0.321
11. RRIRPRPPRLPRPRPRPKCDPRP  -0.314
12. RRIRYRPPRLPRPRPRPEHTPRP  -0.303
13. RRIRMRPPRLPRPRPRPQFMPRP  -0.241
14. RRIRSRPPRLPRPRPRPKHPPRP  -0.194
15. RRIRNRPPRLPRPRPRPMELPRP  -0.182
16. RRIRHRPPRLPRPRPRPVEFPRP  -0.178
17. RRIRQRPPRLPRPRPRPKQLPRP  -0.156
18. RRIRTRPPRLPRPRPRPPNYPRP  -0.101
19. RRIRARPPRLPRPRPRPHPLPRP  -0.0796
20. RRIRYRPPRLPRPRPRPQHFPRP  -0.0787
21. RRIRARPPRLPRPRPRPCKGPRP  -0.0784
22. RRIRRRPPRLPRPRPRPHHAPRP  -0.0424
23. RRIRVRPPRLPRPRPRPWADPRP  -0.0322
24. RRIRERPPRLPRPRPRPHQDPRP  -0.0312
25. RRIRHRPPRLPRPRPRPRHFPRP  -0.0239
26. RRIRIRPPRLPRPRPRPFKSPRP  -0.023
27. RRIRIRPPRLPRPRPRPGEPPRP  -0.0228
28. RRIRKRPPRLPRPRPRPDVHPRP  -0.00151
29. RRIRGRPPRLPRPRPRPNYRPRP  0.0016
30. RRIRMRPPRLPRPRPRPYKEPRP  0.0136
31. RRIRERPPRLPRPRPRPTLEPRP  0.034
32. RRIRVRPPRLPRPRPRPMQHPRP  0.0443
33. RRIRQRPPRLPRPRPRPPDRPRP  0.0477
34. RRIRQRPPRLPRPRPRPQRRPRP  0.0498
35. RRIRWRPPRLPRPRPRPYTFPRP  0.0563
36. RRIRMRPPRLPRPRPRPISRPRP  0.074
37. RRIRDRPPRLPRPRPRPEFLPRP  0.0745
38. RRIRTRPPRLPRPRPRPTQFPRP  0.0832
39. RRIRDRPPRLPRPRPRPRDIPRP  0.0838
40. RRIRNRPPRLPRPRPRPFWVPRP  0.0863
41. RRIRCRPPRLPRPRPRPGGYPRP  0.0874
42. RRIRNRPPRLPRPRPRPKLAPRP  0.0921
43. RRIRLRPPRLPRPRPRPTLFPRP  0.0945
44. RRIRNRPPRLPRPRPRPMARPRP  0.0994
45. RRIRQRPPRLPRPRPRPPVGPRP  0.119
46. RRIRQRPPRLPRPRPRPKNWPRP  0.139
47. RRIRYRPPRLPRPRPRPAPTPRP  0.169
48. RRIRFRPPRLPRPRPRPTRYPRP  0.172
49. RRIRERPPRLPRPRPRPLRCPRP  0.187
50. RRIRCRPPRLPRPRPRPKQHPRP  0.189
51. RRIRPRPPRLPRPRPRPLLGPRP  0.191
52. RRIRHRPPRLPRPRPRPGDGPRP  0.209
53. RRIRERPPRLPRPRPRPIFAPRP  0.21
54. RRIRTRPPRLPRPRPRPRIQPRP  0.214
55. RRIRRRPPRLPRPRPRPIWVPRP  0.222
56. RRIRVRPPRLPRPRPRPESCPRP  0.242
57. RRIRMRPPRLPRPRPRPDYAPRP  0.263
58. RRIRVRPPRLPRPRPRPGPWPRP  0.273
59. RRIRRRPPRLPRPRPRPAKNPRP  0.279
60. RRIRLRPPRLPRPRPRPRSAPRP  0.29
61. RRIRARPPRLPRPRPRPDNEPRP  0.301
62. RRIRLRPPRLPRPRPRPMQPPRP  0.303
63. RRIRERPPRLPRPRPRPLHPPRP  0.309
64. RRIRMRPPRLPRPRPRPKIEPRP  0.367
65. RRIRSRPPRLPRPRPRPTQKPRP  0.375
66. RRIRARPPRLPRPRPRPREHPRP  0.376
67. RRIRTRPPRLPRPRPRPPRCPRP  0.391
68. RRIRRRPPRLPRPRPRPEFYPRP  0.413
69. RRIRIRPPRLPRPRPRPEPKPRP  0.475
70. RRIRRRPPRLPRPRPRPTLPPRP  0.482
71. RRIRARPPRLPRPRPRPEYWPRP  0.515
72. RRIRWRPPRLPRPRPRPICTPRP  0.537
73. RRIRPRPPRLPRPRPRPECRPRP  0.56
74. RRIRTRPPRLPRPRPRPKAAPRP  0.565
75. RRIRSRPPRLPRPRPRPWRFPRP  0.566
